According to the supplement of paper PMC7125110:
± gives the standard error. Fewer inactive variants are shown than the library holds.

B1: glmS ribozyme (parent)
chain: AUAAAAGCGCCAGAACUACAGAAAUGUAGUUGACGAGGAGGAGGUUUAUCGAAUUUUCGGCGGAUGCCUCCAAA

What was measured:
Conditions in all cases: with glucosamine-6-phosphate
glucosamine-6-phosphate [1] = variants of: B1; experiment: self-cleavage kobs at 40 uM GlcN6P; higher = faster cleavage; RNA array
Summary of the method: (§1)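 kcat and KM were obtained from weighted Michaelis–Menten fits across concentrations of kobs values. Those came from one- or two-exponential decay fits to per-tile medians normalised to baseline and to non-cleaving reference variants. The variants were barcoded ribozymes transcribed in situ by E. coli RNA polymerase on sequenced MiSeq chips and tracked through a hybridised Cy3 probe at 37 °C, with 40 μM to 10 mM glucosamine-6-phosphate in HEPES/KCl/Mg(OAc)2 buffer flowed in.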

glucosamine-6-phosphate [2] = variants of: B1; experiment: self-cleavage kobs at 160 uM GlcN6P; higher = faster cleavage; RNA array
Summary of the method: as §1

glucosamine-6-phosphate [3] = variants of: B1; experiment: self-cleavage kobs at 640 uM GlcN6P; higher = faster cleavage; RNA array
Summary of the method: as §1

glucosamine-6-phosphate [4] = variants of: B1; experiment: self-cleavage kobs at 2500 uM GlcN6P; higher = faster cleavage; RNA array
Summary of the method: as §1

glucosamine-6-phosphate [5] = variants of: B1; experiment: self-cleavage kobs at 10000 uM GlcN6P; higher = faster cleavage; RNA array
Summary of the method: as §1

Variant	self-cleavage kobs at 40 uM GlcN6P (glucosamine-6-phosphate [1]) [s⁻¹]	self-cleavage kobs at 160 uM GlcN6P (glucosamine-6-phosphate [2]) [s⁻¹]	self-cleavage kobs at 640 uM GlcN6P (glucosamine-6-phosphate [3]) [s⁻¹]	self-cleavage kobs at 2500 uM GlcN6P (glucosamine-6-phosphate [4]) [s⁻¹]	self-cleavage kobs at 10000 uM GlcN6P (glucosamine-6-phosphate [5]) [s⁻¹]
AUAAAAGCGCCAGAACUACAGACAUGUAGUUGACGAGGAGGAGGUUUAUCGAAUUUUCGGCGGAUGCCUCCAAA [A23C]	0.00185 ± 0.00044	0.00277 ± 0.00082	0.00459 ± 0.0012	0.0102 ± 0.0033	0.0549 ± 0.021
AUAAAAGCGCCAGAAUUACAGAAAUGUAGUUGACGAGGAGGAGGAUUAUCGAAUUUUCGGCGGAUGCCUCCAAA [C16U U45A]	0.00211 ± 0.00039		0.0159 ± 0.003	0.0183 ± 0.0057	0.0689 ± 0.015
AUAAAAGCGCCAGAAUUACAGAAAUGUAGUUGACGAGGAGGAGGUUUAUCGACAUUUCGGCGGAUGCCUCCAAA [C16U A53C U54A]	0.000103 ± 2.4e-05				0.00236 ± 0.00047
AUAAAAGCGCCAGAAUUACAGAAAUGUAGUUGACGUGGAGGAGGUUUAUCGAAUUUUCGGCGGGUGCCUCCAAA [C16U A36U A64G]	< 1e-05				
AUAAAAGCGCCAGAAUUACAGAAAUGUAGUUGACGAGGAGGAGGUUUAUCGAUUUUUCGGCGGAUGCCUCCAAA [C16U A53U]	0.00056 ± 5.9e-05	0.000815 ± 0.00015	0.00552 ± 0.00076	0.00594 ± 0.0012	0.0301 ± 0.0055
AUAAAAGCGCCAGAACUAAAGAAAUGUAGUUGACGAGGAGGAGGUUUAUGGAAUUUUCGGCGGAUGCCUCCAAA [C19A C50G]	5.77e-05 ± 2.2e-05	0.000364 ± 9.5e-05	0.000594 ± 0.00013	6.17e-05 ± 2.2e-05	4.18e-05 ± 1.5e-05
AUAAAAGCGCCAGAACUAAAGAAAUGUAGUUGACGAGGAGGAGGUUUAUCGAAUUUUCGGCGGAUGACUCCAAA [C19A C67A]	0.000243 ± 6.1e-05		0.00033 ± 9.6e-05		0.000881 ± 0.00024
AUAAAAGCGCCAGAAUUACAGAAAUGUAGUUGACGAGGAGGAGGUUUAUAGCAUUUUCGGCGGACUCCUCCAAA [C16U C50A A52C U65C G66U]	< 1e-05		< 1e-05		
AUAAAAGCGCCAGAAUUACAGAAAUGUAGUUGACGAGGAGGAGGUUUAGCGAAUUUUCCGCUGAUGACUCCAAA [C16U U49G G59C G62U C67A]	< 1e-05				
AUAAAAGCGCCAGAAUUACAGAAAUGUAGUUGACGAGGAGGAGUUUUAUCGAAUUUACGGCGGAUGCAUCCAAA [C16U G44U U57A C68A]	< 1e-05	< 1e-05	< 1e-05	< 1e-05	< 1e-05
AUAAAAGCGCCAGAACUACAUAAAUGUAGUUGACGAGGGGGAGGUUUAUCGAAUUUUCGGCGGAUGCCUCCAAA [G21U A39G]	0.00105 ± 0.00032				
AUAAAAGCGCCAGAAUUACAGAAAUGUAGUAGACGGGGAGGAGGUUUAUCGAAUUUUCGGCGGAUGCCUCCAAA [C16U U31A A36G]	< 1e-05				
AUAAAAGCGCCAGAACUACAUAAAUGUAGUAGACGAGGAGGAGGUUUAUCGAAUUUUCGGCGGAUGCCUCCAAA [G21U U31A]	0.000447 ± 9.2e-05	0.00108 ± 0.0003	0.00614 ± 0.0013	0.0102 ± 0.0025	0.042 ± 0.018
AUAAAAGCGCCAGAAUUACAGAAAUGUAGUUGACGAGGAGGAGGUUUAUCGAAUUUUCGUCGGAUGCCUCCAAA [C16U G60U]	< 1e-05	< 1e-05	< 1e-05		
AUAAAAGCGCCAGAAUUACAGAAAUGUAGUUGACGAGGAGGAGGUUUAUCGAAUGUUCGGCGGAUGCCUCCAAA [C16U U55G]	0.000446 ± 7.1e-05	0.00102 ± 0.00026	0.00467 ± 0.0013	0.00554 ± 0.0013	0.0464 ± 0.01
AUAAAAGCGCCAGAAUUACAGAAAUGUAGUUGACGAGGAGGAGGUUUAUCGAAUAUUCGGCGGAUGCCUCCAAA [C16U U55A]	0.000949 ± 0.00012	0.00192 ± 0.00041	0.00568 ± 0.0014	0.0131 ± 0.0022	0.0419 ± 0.0089
AUAAAAGCGCCAGAACUACAAAAAUGUAGUUGACGAGGAGGAGGUUUAUCGAAUUUUCGGCGGAUGCCUACAAA [G21A C70A]	3.65e-05 ± 1.8e-05			7.55e-05 ± 1.5e-05	0.000262 ± 6.9e-05
AUAAAAGCGCCAGAACUACAUAAAUGUAGCUGACGAGGAGGAGGUUUAUCGAAUUUCCGGCGGAUCUCUCCAAA [G21U U30C U57C G66C C67U]	< 1e-05				
AUAAAAGCGCCAGAACUACACAAAUGUAAUUGACGAGGAGGAGGUUUAUCGAAUUUUCGGCGGAUGCCUCCAAA [G21C G29A]	6.68e-05 ± 2.4e-05				0.00366 ± 0.00094
AUAAAAGCGCCAGAACUACAUAAAUGUAGUUAACGAGGAGGAGGUUUAUGGAAUUUGCGGCGGAUGCCUGCAAA [G21U G32A C50G U57G C70G]	0.000174 ± 3.9e-05				0.000301 ± 6.1e-05
AUAAAAGCGCCAGAACUAAAGAAAUGUAUUUGACGAGGAGGAGGUUUAUCGAAUUUUAGGCGGAUGGCUCCAAA [C19A G29U C58A C67G]	3.09e-05 ± 1.3e-05				6.68e-05 ± 1.4e-05
AUAAAAGCGCCAGAAUUACAGAAAUGUAGUUGACGAGGAGGAGGUUUAUGGAAUUUUCGGCGGAUGCCUCCAAA [C16U C50G]	4.26e-05 ± 1.3e-05	3.28e-05 ± 1.4e-05	4.35e-05 ± 1.3e-05		
AUAAAAGCGCCAGAAUUACAGAAAUGUAGUUCACGAGGAUGAGGUUUAUCGAAUUUUUGGCGGAUGCCUCCAAA [C16U G32C G40U C58U]	< 1e-05				
AUAAAAGCGCCAGAAUUACAGAAAUGUAGUUGACGAGGAGGAGGUUUAUCAAAUUUUCGGCGGAUGCCUCCAAA [C16U G51A]	< 1e-05	< 1e-05			
AUAAAAGCGCCAGAAUUACAGAAAUGUAGUUGACGAGGAGGAGGUUUAUCGAAUUUUCGGCGCAUGCCUCCAAA [C16U G63C]	< 1e-05		< 1e-05		< 1e-05
AUAAAAGCGCCAGAAUUACAGAAAUGUAGUUGACGAGGAGGAGGUUUAUCGAAUAUUCGGCGGAUGACUCCAAA [C16U U55A C67A]	0.000154 ± 5.7e-05				0.00183 ± 0.00074
AUAAAAGCGCCAGAAUUACAGAAAUGUAGUGGACGAGGAGGAGGUUUAUGGAAUUUUCGGCGGAUGCCUACAAA [C16U U31G C50G C70A]	0.000109 ± 2.3e-05				6.25e-05 ± 1.3e-05
AUAAAAGCGCCAGAAUUACAGAAAUGUAGUUGACGAGGAGGAGGCUUUUCGAAUUUUCGGCGGAUGCUUCCAAA [C16U U45C A48U C68U]	< 1e-05				
